Among the data in article PMC10349818 are stoichiometry N values, retold here.

As a reminder, the stoichiometry N is the number of molecules, sites or subunits per partner or assembly.

Assay [1] deals with NavAb N49K/L176G mutant (Arcobacter butzleri) (UniProt A8EVM5). The assay can be described thus: crystal structure; protein in DMPC:CHAPSO bicelles, sitting-drop vapour diffusion at 20 °C; cryoprotectant with 2.5 M sodium chloride, with or without 100 mM calcium nitrate; homotetramer around the four-fold axis.
For assay [2], the target named is NavAb N49K/L176Q mutant (Arcobacter butzleri) (UniProt A8EVM5). The assay is described as above.

For the substance “NavAb N49K/L176G mutant (from UniProt A8EVM5 1-267) (natural protein)”, the stoichiometry N in assay [1] was found to be 4.

Turning to “NavAb N49K/L176Q mutant (from UniProt A8EVM5 1-267) (natural protein)”, the stoichiometry N in assay [2] was 4.
